Tests used:
Test in all cases: fluorescence anisotropy
[1] = target: APE1 WT (Homo sapiens, UniProt P27695 1-318)
[2] = target: APE1 C65S (Homo sapiens, UniProt P27695 1-318, C65S)
[3] = target: APE1 C310S (Homo sapiens, UniProt P27695 1-318, C310S)
Chain of APE1 C310S (P27695 whole entry C310S): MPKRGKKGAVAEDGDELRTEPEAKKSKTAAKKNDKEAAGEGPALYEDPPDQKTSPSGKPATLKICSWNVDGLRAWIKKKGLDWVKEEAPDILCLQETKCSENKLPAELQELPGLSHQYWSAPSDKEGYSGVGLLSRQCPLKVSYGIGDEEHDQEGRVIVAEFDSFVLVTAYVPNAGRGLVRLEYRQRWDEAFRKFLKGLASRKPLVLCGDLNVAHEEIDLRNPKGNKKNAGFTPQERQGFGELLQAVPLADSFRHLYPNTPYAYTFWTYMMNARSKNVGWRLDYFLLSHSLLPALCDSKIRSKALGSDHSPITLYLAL

Chain of APE1 C65S (P27695 whole entry C65S): as the sequence (P27695 whole entry C310S) above, with C65S, S310C counted along it
Chain of APE1 WT (P27695 whole entry): as the sequence (P27695 whole entry C310S) above, with S310C counted along it

| Binder | binding result [1] | binding result [2] | binding result [3] |
| --- | --- | --- | --- |
| N3 WT duplex (dsDNA) DNA 1: TTGGGCGGGGCCTGGGCGGGGCC DNA 2: GGCCCCGCCCAGGCCCCGCCCAA | no binding |  |  |
| TAGGGTGCTGTTTGGGCGGGGCCTGGGCGGGGCC (structured_DNA) [N3-5 G4] |  | binds | binds |
| TTGGGCGGGGCCTGGGCGGGGCC (structured_DNA) [N3-4 G4] |  | binds | binds |

From PMC9931449
